The values that follow come from patent US20220204643A1 (published 2022).

Experiment [1] concerns the target T1, zinc finger with KRAB and SCAN domains 4, transcript variant X1 (human, UniProt Q969J2 1-545).
T1 construct: on protein array; also called ZKSCAN4
T1 sequence: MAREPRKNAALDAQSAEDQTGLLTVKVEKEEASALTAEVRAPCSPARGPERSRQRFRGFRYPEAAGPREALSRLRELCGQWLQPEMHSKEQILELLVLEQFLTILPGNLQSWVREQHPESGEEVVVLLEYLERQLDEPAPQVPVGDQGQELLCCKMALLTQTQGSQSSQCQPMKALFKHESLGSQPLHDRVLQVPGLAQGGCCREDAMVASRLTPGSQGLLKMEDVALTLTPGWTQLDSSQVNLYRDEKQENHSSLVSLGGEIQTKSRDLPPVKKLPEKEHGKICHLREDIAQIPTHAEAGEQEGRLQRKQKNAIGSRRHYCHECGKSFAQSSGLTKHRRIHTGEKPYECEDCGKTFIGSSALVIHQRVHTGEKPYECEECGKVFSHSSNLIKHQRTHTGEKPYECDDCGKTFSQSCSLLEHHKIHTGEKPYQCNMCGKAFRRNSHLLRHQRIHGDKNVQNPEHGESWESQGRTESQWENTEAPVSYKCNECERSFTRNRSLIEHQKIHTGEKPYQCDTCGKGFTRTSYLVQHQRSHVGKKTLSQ
Kind of experiment: protein array.

Experiment [2] deals with T2, cyclin dependent kinase 2 associated protein 2, transcript variant 1 (human, UniProt O75956 1-126).
T2 construct: on protein array; also called CDK2AP2
T2 sequence: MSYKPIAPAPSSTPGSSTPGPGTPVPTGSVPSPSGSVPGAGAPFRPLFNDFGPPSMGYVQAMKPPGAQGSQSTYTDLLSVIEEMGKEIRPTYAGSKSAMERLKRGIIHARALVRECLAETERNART
Kind of experiment: protein array.

The target in experiment [3] is T3, NFKB inhibitor beta, transcript variant 1 (human, UniProt Q15653 1-356).
T3 construct: on protein array; also called NFKBIB
T3 sequence: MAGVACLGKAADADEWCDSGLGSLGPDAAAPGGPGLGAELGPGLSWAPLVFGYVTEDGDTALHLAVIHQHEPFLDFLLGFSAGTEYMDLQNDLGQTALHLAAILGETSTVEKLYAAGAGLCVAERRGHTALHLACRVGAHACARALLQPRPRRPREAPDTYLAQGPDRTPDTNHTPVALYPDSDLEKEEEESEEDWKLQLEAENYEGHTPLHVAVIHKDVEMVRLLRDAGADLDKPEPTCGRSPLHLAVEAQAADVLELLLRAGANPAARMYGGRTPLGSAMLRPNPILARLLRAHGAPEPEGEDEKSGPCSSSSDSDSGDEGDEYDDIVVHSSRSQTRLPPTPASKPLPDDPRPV
Briefly: protein array.

The target of the next experiment is T4, chymotrypsinogen B2 (human, UniProt Q6GPI1 19-263).
T4 construct: on protein array; also called CTRB2
T4 sequence (Q6GPI1 19-263 limits assumed): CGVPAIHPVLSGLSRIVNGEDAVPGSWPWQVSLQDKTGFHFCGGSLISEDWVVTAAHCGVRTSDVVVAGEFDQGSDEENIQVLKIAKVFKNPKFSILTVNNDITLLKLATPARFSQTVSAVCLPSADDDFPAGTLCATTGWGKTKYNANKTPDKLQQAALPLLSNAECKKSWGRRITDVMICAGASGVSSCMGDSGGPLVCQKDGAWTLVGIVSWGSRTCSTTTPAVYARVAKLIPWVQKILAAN
Briefly: protein array.

The target of experiment [4] is T5, Transforming growth factor beta 3 (human, UniProt P10600 24-412).
T5 construct: on protein array; also called TGFB3
T5 sequence: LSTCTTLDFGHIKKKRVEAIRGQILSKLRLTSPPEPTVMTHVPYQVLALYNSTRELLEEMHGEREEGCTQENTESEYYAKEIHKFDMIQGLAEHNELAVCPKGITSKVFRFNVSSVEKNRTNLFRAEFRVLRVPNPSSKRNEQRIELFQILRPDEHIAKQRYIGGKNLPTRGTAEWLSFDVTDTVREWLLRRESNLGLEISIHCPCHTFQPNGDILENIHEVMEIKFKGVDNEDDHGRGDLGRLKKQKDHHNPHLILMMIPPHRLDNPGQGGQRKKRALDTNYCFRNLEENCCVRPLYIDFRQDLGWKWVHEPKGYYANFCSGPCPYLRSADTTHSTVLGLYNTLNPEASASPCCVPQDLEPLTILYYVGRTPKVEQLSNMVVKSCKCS
Kind of experiment: protein array.

Experiment [5] deals with T6, phosphoglucomutase 2 like 1 (human, UniProt Q6PCE3 1-622 at identity 1.00)).
T6 construct: on protein array; also called PGM2L1
T6 sequence: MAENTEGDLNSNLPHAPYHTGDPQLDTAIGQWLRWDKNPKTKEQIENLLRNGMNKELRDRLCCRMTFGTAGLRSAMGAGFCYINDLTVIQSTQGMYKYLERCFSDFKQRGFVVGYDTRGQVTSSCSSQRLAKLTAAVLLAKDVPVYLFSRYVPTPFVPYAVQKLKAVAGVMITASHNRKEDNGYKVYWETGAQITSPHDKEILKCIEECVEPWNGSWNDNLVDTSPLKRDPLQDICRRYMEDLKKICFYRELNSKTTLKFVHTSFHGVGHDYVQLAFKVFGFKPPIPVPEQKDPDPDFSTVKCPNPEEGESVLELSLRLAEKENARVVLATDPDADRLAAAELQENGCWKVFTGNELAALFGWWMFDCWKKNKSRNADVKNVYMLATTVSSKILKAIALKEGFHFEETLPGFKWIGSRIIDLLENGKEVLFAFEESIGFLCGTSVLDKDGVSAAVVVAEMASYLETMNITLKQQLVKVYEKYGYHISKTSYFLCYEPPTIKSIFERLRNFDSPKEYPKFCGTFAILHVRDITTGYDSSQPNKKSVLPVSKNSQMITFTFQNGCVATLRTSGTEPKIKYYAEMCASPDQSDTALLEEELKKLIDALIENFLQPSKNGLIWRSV
Kind of experiment: protein array.

Experiment [6] concerns the target T7, zinc finger DHHC-type containing 1, transcript variant 1 (human, UniProt Q8WTX9 1-485).
T7 construct: on protein array; also called ZDHHC1
T7 sequence: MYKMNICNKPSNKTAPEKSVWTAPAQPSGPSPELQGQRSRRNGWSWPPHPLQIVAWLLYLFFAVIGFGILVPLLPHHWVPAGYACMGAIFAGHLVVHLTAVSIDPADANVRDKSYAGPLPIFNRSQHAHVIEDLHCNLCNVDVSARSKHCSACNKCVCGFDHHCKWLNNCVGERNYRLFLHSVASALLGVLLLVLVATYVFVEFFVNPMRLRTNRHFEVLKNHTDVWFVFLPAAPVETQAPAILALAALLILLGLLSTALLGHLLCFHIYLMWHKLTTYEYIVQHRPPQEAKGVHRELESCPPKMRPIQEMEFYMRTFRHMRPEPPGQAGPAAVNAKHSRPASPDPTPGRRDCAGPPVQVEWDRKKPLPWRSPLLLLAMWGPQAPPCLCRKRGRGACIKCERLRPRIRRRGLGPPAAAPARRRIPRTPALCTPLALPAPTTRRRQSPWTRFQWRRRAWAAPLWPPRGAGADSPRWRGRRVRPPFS
Briefly: protein array.

In another experiment the target is T8, programmed cell death 1 (human, UniProt Q15116 25-288).
T8 construct: on protein array; also called PDCD1
T8 sequence (Q15116 25-288 limits assumed): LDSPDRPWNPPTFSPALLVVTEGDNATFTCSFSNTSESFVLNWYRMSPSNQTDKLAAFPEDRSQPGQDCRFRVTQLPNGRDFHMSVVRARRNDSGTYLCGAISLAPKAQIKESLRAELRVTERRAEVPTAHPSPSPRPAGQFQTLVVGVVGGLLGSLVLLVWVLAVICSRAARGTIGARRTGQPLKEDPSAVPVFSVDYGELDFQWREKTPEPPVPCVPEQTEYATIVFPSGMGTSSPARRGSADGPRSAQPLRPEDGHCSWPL
Kind of experiment: protein array, with experimental replicate.

Experiment [7] addresses T9, transforming growth factor beta induced (human, UniProt Q15582 24-683).
T9 construct: on protein array; also called TGFBI
T9 sequence: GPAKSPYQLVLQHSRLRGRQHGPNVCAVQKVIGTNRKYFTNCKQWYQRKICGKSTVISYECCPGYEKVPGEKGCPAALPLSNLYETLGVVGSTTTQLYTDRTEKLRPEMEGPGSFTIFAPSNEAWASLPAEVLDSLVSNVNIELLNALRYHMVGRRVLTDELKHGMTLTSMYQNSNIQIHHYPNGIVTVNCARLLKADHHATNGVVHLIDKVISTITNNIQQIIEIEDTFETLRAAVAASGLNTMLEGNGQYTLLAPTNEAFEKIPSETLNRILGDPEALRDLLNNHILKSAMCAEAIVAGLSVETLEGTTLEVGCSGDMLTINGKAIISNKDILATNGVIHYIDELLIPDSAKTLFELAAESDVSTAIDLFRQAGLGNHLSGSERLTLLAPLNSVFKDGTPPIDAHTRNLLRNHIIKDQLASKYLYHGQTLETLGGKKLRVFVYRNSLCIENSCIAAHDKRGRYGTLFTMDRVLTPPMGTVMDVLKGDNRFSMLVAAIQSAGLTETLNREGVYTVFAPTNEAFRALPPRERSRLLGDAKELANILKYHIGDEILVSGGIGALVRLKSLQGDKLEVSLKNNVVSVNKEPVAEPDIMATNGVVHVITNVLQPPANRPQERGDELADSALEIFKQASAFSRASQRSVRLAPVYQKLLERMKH
Briefly: protein array.

Experiment [8] concerns the target T10, BCL2 apoptosis regulator, transcript variant alpha (human, UniProt P10415 1-239).
T10 construct: on protein array
Briefly: protein array.

T10 sequence (P10415 whole entry, change not shown): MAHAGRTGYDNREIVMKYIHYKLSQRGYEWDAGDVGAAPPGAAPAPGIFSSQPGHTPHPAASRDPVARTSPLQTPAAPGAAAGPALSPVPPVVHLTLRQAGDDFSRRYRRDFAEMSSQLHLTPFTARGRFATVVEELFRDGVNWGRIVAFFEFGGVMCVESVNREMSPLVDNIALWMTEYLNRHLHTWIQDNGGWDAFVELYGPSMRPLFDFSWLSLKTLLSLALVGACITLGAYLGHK

B1: TBRE1009 (antibody, V domains shown)
VH: EVQLVESGGGLVKPGGSLRLSCVGSGFTFSNYSMNWVRQAPGRGLEWVSSISWGSSYINYADSVKGRFTISRDNAKNSLYLQMTSLTAEDTAVYYCACRRIYQGFDPWGQGTLVT
VL: DIQMTQSPSSLSASVGDRVTISCRASHNINTYLNWYQHKPGKAPKIVIYGASSLQSGVPSRFSGSGSGTDFSLTISSLQREDFATYFCQQSFNTVLTFGGGTRVDI
notes: VH/VL only
Consider B1, for which the binding result in [1] is on record as “binds”.

B2: TSTO1005 (antibody, V domains shown)
VH: EVQLVESGGGVVQPGGSLRLSCAASGFTFEDFGMHWVRQAPGKGLEWVAFTRFDGSEKYYVDSVKGRFTVSRDNSKNTLFLHMNSLRPEDTAVYYCAKTRSYSSADTTRPNAPGYWGQGTLVTVSS
VL: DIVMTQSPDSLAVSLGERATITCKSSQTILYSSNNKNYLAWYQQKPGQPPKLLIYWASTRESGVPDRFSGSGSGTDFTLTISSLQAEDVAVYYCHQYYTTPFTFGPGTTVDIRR
notes: VH/VL tied via antigen in summary, not by name in this stretch
Turning to B2, the binding result in experiment [2] and in [3] was “binds” throughout.

B3: TSTO1004 (antibody, V domains shown)
VH: QVQLVQSGSELKKPGASVKVSCTSSGYVFTSFGVSWVRQVPGQGPEWMGWISPYTRQTKYAQSLQGRITLTADTSTNTTYMELRSLRSDDTAMYYCVREEFGVVRGPNPFDVWGQGTMVTVSS
VL: DIQMTQAPSTLSASVGDRVSITCRASQNIRDFLAWYQQKPGRAPDLLIYRASTLEKGVSARFSGSGSGTEFTLTITGLQPDDFATYYCQQYSDYSTFGGGTRVEIK
notes: as for B2
Regarding B3, the binding result with chymotrypsinogen B2 is “binds”.

B4: TSTO1003 (antibody, V domains shown)
VH: QVQLKQSGGGVVQPGRSLTLSCVASGLTFSDYGMHWVRQAPGKGLEWVAVIWHDGSKTNYADSVKGRIIISRDNSKSTVYLQMNRLRGEDTAVYYCATSHGGLVPGGENYWGQGTLVTVSS
VL: SDELTQPPSVSVSPGQTARITCSGDALAKEYAYWYQQKSGQAPVLVISKDTERPSGIPARFSGSSSGTTVTLTISGVQSDDEADYYCQSADSSLTYWLFGGGTKLTVLR
notes: as for B2
Take B4: the binding result in [4] was “binds”.

B5: TTES1002 (antibody, V domains shown)
VH: QVQLQESGPGLVKPSETLSLICTVSGASVNSGTHFWSWIRQPPGKGLEWIGYVYYSGNTNYNPSLKSRVAISVDTSKNQFSLKLTSVTSADTAVYYCARDFDDGYDIRYWGQGTRVSVSS
VL: QSALTQPASVSGSPGQSITISCTGSSNDIGRYKYVSWFQHHPGRAPKLIIYEVNNRPSGLSHRFSGSKSGNTASLTISGLQAEDEADYYCCSYTSSLTYVFGTGTAVTVL
notes: as for B2
B5: the binding result in experiment [5] is given as “binds”.

B6: TBLA1003 (antibody, V domains shown)
VH: EVQLVESGGGLIQPGRSLRLSCAASGFTFEDYAMHWVRQAPGKGLEWVSGISWNSGNIGYADSVKGRFTISRDNAKNSLYLQMHSLRPEDTALYYCAKDINFFGLGTGGGAMDVWGQGTTVTVSS
VL: DIQMTQSPSYVSASVGDRVTITCRASQGIDVWLAWYQQKPGKAPKLLIYTASSLQSGVPSRFSGSGGGTEFTLTISSLQPEDFATYYCQQSNSFPGTFGPGTKVDVKR
notes: VH/VL only
As to B6, the binding result in experiment [6] was “binds”.

B7: TTES1003 (antibody, V domains shown)
VH: VVQLVESGGGLVQPGGSLRLSCSASGFTFSSYAMHWVRQAPGKGLEYVSAISSNGGSTYYADSVKGRFTISRDNSKNTLYLQMSSLRAEDTAVYYCVKSPVAANDAFDIWGQGTMVTVSS
VL: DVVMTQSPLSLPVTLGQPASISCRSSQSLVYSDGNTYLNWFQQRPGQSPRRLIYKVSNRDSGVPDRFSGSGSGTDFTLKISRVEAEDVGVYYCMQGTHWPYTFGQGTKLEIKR
notes: as for B2
With B7, the binding result with programmed cell death 1 is recorded as “binds”.

B8: TSTO1008 (antibody, V domains shown)
VH: AVQLVQSGAEVKKPGESLRISCKGSGYSFSTYWIIWVRQMPGKGLEWIGRFDPSDSYNVNSPSFQGHVTISADTSINTAYLQWSSLKASDSAMYYCARRSDKAVPGTFDQWGQGTLVTVSS
VL: RSVLTQPPSVSAAPGQKVIISCSGSSSNIGNNYVSWYQQFLGTAPKLLIYDTDKRPSGIPDRFSGSKSGTSATLGITGLQTGDEAHYYCATWDSSLRAGPVVFGGGTKLTVLG
notes: as for B2
As for B8, the binding result in experiment [7] is recorded as “binds”.

B9: TSTO1010 (antibody, V domains shown)
VH: EVQLVESGGGLVKPRGSLRLSCAASGFTFSAYGMNWVRQAPGKGLEWVSSISGDSRDIYYGASMKGRFTISRDNAKSSLYLQMNSLRAEDTAVYYCARGEGGELWAFDYWGLGVLVTVSS
VL: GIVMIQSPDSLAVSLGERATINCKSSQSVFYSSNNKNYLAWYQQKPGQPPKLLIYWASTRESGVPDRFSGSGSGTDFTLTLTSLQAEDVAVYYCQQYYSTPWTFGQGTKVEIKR
notes: as for B2
With B9, the binding result in [8] is reported as “binds”.
